Measurements reported in paper PMC6686035.

How the values were obtained:
[1] = molecular target: CsrA-His6 (Escherichia coli) (UniProt P69913); test: RNase T1 footprinting; conditions: EMSA: 0.5 nM RNA, 10 mM MgCl2, 100 mM KCl, 32.5 ng yeast RNA, 20 mM DTT, 7.5% glycerol, 4 U SUPERasin, 37 C 30 min (pH not stated), footprint: 2 nM RNA
[2] = molecular target: CsrA-His6 (Escherichia coli) (UniProt P69913); test: EMSA; conditions: EMSA: 0.5 nM RNA, 10 mM MgCl2, 100 mM KCl, 32.5 ng yeast RNA, 20 mM DTT, 7.5% glycerol, 4 U SUPERasin, 37 C 30 min (pH not stated), footprint: 2 nM RNA

Chain of CsrA-His6 (Escherichia coli) (P69913 whole entry): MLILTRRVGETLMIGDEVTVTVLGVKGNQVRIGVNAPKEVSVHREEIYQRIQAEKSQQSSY

Row | Substance | Kd [2] | other results
1 | GGGAUCAUCGUCAGAAUUGACUCCACGAUCACAUUUCGGACCGGCAGAAAGGAAUUAUUCUGCAAACAGUAAUUAUGGUGUUUUGAUUUAUCUUGCACCUCUCCACUUCUGGAUAUAAGGAUAUUAGGUAUGGCAACCGCUGGAAUGCUUCUCAAGGAUCC [ftnB footprint RNA (+1 to +152)] | – | binding [1]: binds
2 | GAAGAUCAUCGUCAGAAUUGACUCCACGAUCACAUUUCGGACCGGCAGAAAGGAAUUAUUCUGCAAACAGUAAUUAUGGUGUUUUGAUUUAUCUUGCACCUCUCCACUUCUGGAUAUAAGGAUAUUAGGU [ftnB EMSA transcript] | 13 nM | –
3 | GGGUGGAAGCGAAGGAGUCAAAAAAUGAAAGGUGAUACUAAAGUUAUAAAUUAUCUCAACAAACUGUUGGGAAAUGAGCUUGU [bfr EMSA transcript] | 27 nM | –
4 | ftnB EMSA transcript | 13 nM | –
5 | bfr EMSA transcript | – | Kd ([2]; 10 mM Mg2+, apparent KD, cooperative equation, single shift): 27 nM
